“And” between values parts separate entries of the source, which are not always exact repeats. Identical values can stand only once.
T1: 인간 골수종 세포주 U266 표면의 인간 BCMA (human, UniProt Q02223 1-184)
T1 construct: whole, on cells; also called U266 세포; FACS 세포 결합
T1 sequence (looked up): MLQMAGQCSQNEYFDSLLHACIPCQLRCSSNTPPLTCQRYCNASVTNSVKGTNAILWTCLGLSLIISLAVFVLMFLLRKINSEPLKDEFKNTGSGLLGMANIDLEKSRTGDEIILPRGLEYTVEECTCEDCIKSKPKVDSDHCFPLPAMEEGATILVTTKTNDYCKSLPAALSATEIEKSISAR

T2: 재조합 인간 BCMA-his 단백질 (Cat#BCA-H522Y, 아크로 바이오시스템즈) (human, UniProt Q02223 1-54, biotin-labelled in the capture ELISA and the benchmark-blocking ELISA)
T2 construct: Bought protein, MW 7.8 kDa as printed; not shown: his tag
T2 sequence: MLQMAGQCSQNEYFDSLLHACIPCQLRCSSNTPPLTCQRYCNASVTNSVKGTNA

B1: 마우스 항-BCMA 단일클론 항체 B1A1 (antibody, V domains shown)
VH: DVQLQESGPGLVKPSQSLSLTCSVTGYSITSAYYWNWIRQFPGNKLEWMGYIRYDGSNNYNPSLKNRISITRDTSKNQFFLKLNSVTAEDTATYYCAPYDYDEVFAYWGQGTLVTVSA
VL: DIVMTQSHKFMSTSVGDRVSITCKASQEVSTAVAWYQQKPGQSPKLLIYWASMRHTGVPDRFTGSGSGTDYTLIITSVQAEDLALYYCQQYYSTPLTFGAGTKLELK
B2: BCMA 벤치마크 (GSK2857916의 BCMA-결합 부분을 함유하는 항체) (antibody, human IgG1, kappa, V domains shown)
VH: QVQLVQSGAEVKKPGSSVKVSCKASGGTFSNYWMHWVRQAPGQGLEWMGATYRGHSDTYYNQKFKGRVTITADKSTSTAYMELSSLRSEDTAVYYCARGAIYDGYDVLDNWGQGTLVTVSS
VL: DIQMTQSPSSLSASVGDRVTITCSASQDISNYLNWYQQKPGKAPKLLIYYTSNLHSGVPSRFSGSGSGTDFTLTISSLQPEDFATYYCQQYRKLPWTFGQGTKLEIKR
notes: also called BM; BCMA-mab1

Experiments:
[1] = target: T1, 인간 골수종 세포주 U266 표면의 인간 BCMA; test: flow cytometry on U266 cells
[2] = target: T2, 재조합 인간 BCMA-his 단백질 (Cat#BCA-H522Y, 아크로 …); test: SPR (Biacore T200), antibody captured on chip, human BCMA-his in flow, 1:1 Langmuir fit
[3] = target: T3, 사이노몰거스 원숭이 BCMA-Fc 단백질 (아크로 바이오시스템즈, Cat#BCA-C5253) (cynomolgus monkey, UniProt A0A2K5UD97 1-53); test: SPR (Biacore T200), antibody captured on chip, cynomolgus BCMA-Fc in flow, 1:1 Langmuir fit
T3 construct: also called 사이노몰거스 BCMA-Fc; 사이노몰거스 BCMA; not shown: Fc tag

[4] = target: T2, 재조합 인간 BCMA-his 단백질 (Cat#BCA-H522Y, 아크로 …); test: capture ELISA: antibody captured on plate, biotin-labelled human BCMA-his 0.28 nM in solution
[5] = target: T2, 재조합 인간 BCMA-his 단백질 (Cat#BCA-H522Y, 아크로 …); test: competition ELISA: BCMA-his coated, antibody titrated, then biotin-labelled human BAFF-Fc 0.25 nM; competitor BAFF-Fc
[6] = target: T2, 재조합 인간 BCMA-his 단백질 (Cat#BCA-H522Y, 아크로 …); test: competition ELISA: BM coated, antibody titrated and premixed with biotin-labelled human BCMA-his 0.22 nM; competitor BM
[7] = target: T2, 재조합 인간 BCMA-his 단백질 (Cat#BCA-H522Y, 아크로 …); test: SPR (Biacore), human BCMA
[8] = target: T3, 사이노몰거스 원숭이 BCMA-Fc 단백질 (아크로 바이오시스템즈, …); test: SPR (Biacore), cynomolgus BCMA
[9] = target: T2, 재조합 인간 BCMA-his 단백질 (Cat#BCA-H522Y, 아크로 …); test: capture ELISA with biotin-labelled human BCMA-his
[10] = target: T2, 재조합 인간 BCMA-his 단백질 (Cat#BCA-H522Y, 아크로 …); test: competition ELISA: BCMA-his coated, antibody titrated, then biotin-labelled human BAFF-Fc; competitor BAFF-Fc
[11] = target: T2, 재조합 인간 BCMA-his 단백질 (Cat#BCA-H522Y, 아크로 …); test: competition ELISA: BM coated, antibody titrated and premixed with biotin-labelled human BCMA-his; competitor BM (self)
[12] = target: T2, 재조합 인간 BCMA-his 단백질 (Cat#BCA-H522Y, 아크로 …); test: competition ELISA: BM coated, antibody titrated and premixed with biotin-labelled human BCMA-his 0.22 nM; competitor BM (self)

T3 sequence (A0A2K5UD97 entry or part of it): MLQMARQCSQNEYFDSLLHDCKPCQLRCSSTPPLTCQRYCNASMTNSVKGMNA

Binder | EC50 [1] | Kd [2] | koff [2] | kon [2] | Kd [3] | koff [3] | kon [3] | EC50 [4] | IC50 [5] | IC50 [6] | Kd [7] | Kd [8] | EC50 [9] | IC50 [10] | IC50 [11] | IC50 [12]
B1 | 2.66 nM | 0.636 nM | 0.00161 s⁻¹ | 2.45e+06 M⁻¹ s⁻¹ | 9.08 nM | 0.0148 s⁻¹ | 1.63e+06 M⁻¹ s⁻¹ | 1.06 nM | 7 nM | 1.91 nM |  |  |  |  |  | 
B2 |  | 0.742 nM | 0.000245 s⁻¹ | 330000 M⁻¹ s⁻¹ |  |  |  | 1.27 nM and 1.11 nM | 9.61 nM and 10.7 nM |  | 0.742 nM | 0.599 nM | 0.71 nM and 0.93 nM | 3.64 nM and 3.59 nM | 2.23 nM and 1.64 nM | 1.93 nM and 2.64 nM

Source: patent publication KR20220012314A (dated 2022)
